doi:10.1101/2024.10.30.620795 (2024)

T1: A*01/LTD peptide on A*01/LTD (human)
T1 peptide: LTDEMIAQY

B1: 545 (TCR)
alpha TRAV38-1 TRAJ23 CDR3: CALRGNQGGKLIF
beta TRBV7-9 TRBJ2-7 CDR3: CASSPDGMHEQYF
B2: 1735 (TCR)
alpha TRAV21 TRAJ11 CDR3: CAVTRGGYSTLTF
beta TRBV12-3 TRBJ2-1 CDR3: CASSLGTGGIDEQFF
B3: 2495 (TCR)
alpha TRAV19 TRAJ23 CDR3: CALRIYNQGGKLIF
beta TRBV5-1 TRBJ2-1 CDR3: CASSTGLAGMSSYNEQFF
B4: 5245 (TCR)
alpha TRAV30 TRAJ34 CDR3: CGTEIRGKLIF
beta TRBV27 TRBJ1-5 CDR3: CASSLGFPNQPQHF
B5: 11151 (TCR)
alpha TRAV12-2 TRAJ53 CDR3: CAVNSGGSGGSNYKLTF
beta TRBV29-1 TRBJ2-7 CDR3: CSAQQGWPYEQYF
B6: 7094 (TCR)
alpha TRAV12-3 TRAJ33 CDR3: CAMRSNYQLIW
beta TRBV30 TRBJ2-7 CDR3: CAWRLQGAGEQYF
B7: 1650 (TCR)
alpha TRAV13-1 TRAJ9 CDR3: CAAPPGGFKTIF
beta TRBV28 TRBJ2-1 CDR3: CASTTSTGAYNEQFF
B8: 8915 (TCR)
alpha TRAV29/DV5 TRAJ49 CDR3: CAAWSRGTGNQFYF
beta TRBV20-1 TRBJ2-1 CDR3: CSARDRWEGRTNEQFF
B9: 2123 (TCR)
alpha TRAV14/DV4 TRAJ43 CDR3: CAMRDLGDMRF
beta TRBV27 TRBJ1-2 CDR3: CASSFWDRRYGYTF
B10: 3936 (TCR)
alpha TRAV12-3 TRAJ33 CDR3: CAMRSNYQLIW
beta TRBV27 TRBJ2-3 CDR3: CASSPSQGTQYF
B11: 6808 (TCR)
alpha TRAV17 TRAJ45 CDR3: CATKRGADGLTF
beta TRBV6-5 TRBJ1-2 CDR3: CASSYGGDVYGYTF
B12: 832 (TCR)
alpha TRAV13-1 TRAJ6 CDR3: CAAGSSGGSYIPTF
beta TRBV7-7 TRBJ2-1 CDR3: CASSLEGHRGLYNEQFF
B13: 6319 (TCR)
alpha TRAV21 TRAJ22 CDR3: CAVKTSGSARQLTF
beta TRBV27 TRBJ2-3 CDR3: CASSSPPISVATDTQYF
B14: 6548 (TCR)
alpha TRAV12-3 TRAJ33 CDR3: CASRSNYQLIW
beta TRBV6-1 TRBJ1-5 CDR3: CASSDAQAPQHF
B15: 11085.2 (TCR)
alpha TRAV2 TRAJ6 CDR3: CAVEDPAGGSYIPTF
beta TRBV20-1 TRBJ2-7 CDR3: CSARGATGDFYEQYF
B16: 11195 (TCR)
alpha TRAV19 TRAJ32 CDR3: CALRYGGATNKLIF
beta TRBV7-6 TRBJ1-2 CDR3: CASSLEGPYGYTF
B17: 4350 (TCR)
alpha TRAV29/DV5 TRAJ42 CDR3: CAASLNYGGSQGNLIF
beta TRBV19 TRBJ1-1 CDR3: CASSSKDITVTEAFF
B18: 6743 (TCR)
alpha TRAV5 TRAJ15 CDR3: CAGSRTGTALIF
beta TRBV27 TRBJ2-6 CDR3: CASSTGIVTGANVLTF
B19: 7100 (TCR)
alpha TRAV21 TRAJ43 CDR3: CAVRGGDMRF
beta TRBV6-6 TRBJ2-7 CDR3: CASTNRGDISYEQYF
B20: 297 (TCR)
alpha TRAV12-2 TRAJ33 CDR3: CAVSQGGVSNYQLIW
beta TRBV29-1 TRBJ2-7 CDR3: CSVFTGWPYEQYF
B21: 66 (TCR)
alpha TRAV21 TRAJ41 CDR3: CAVQSSGSGYALNF
beta TRBV5-5 TRBJ2-7 CDR3: CASTKGTDSYEQYF
B22: 11155 (TCR)
alpha TRAV16 TRAJ37 CDR3: CALNSNTGKLIF
beta TRBV27 TRBJ2-1 CDR3: CASSSFLLAGGGGNSNEQFF
B23: 11253 (TCR)
alpha TRAV21 TRAJ40 CDR3: CAVRGGFGSGTYKYIF
beta TRBV28 TRBJ1-2 CDR3: CASRTTRANYGYTF
B24: 5469 (TCR)
alpha TRAV12-2 TRAJ53 CDR3: CAVNWGGGSNYKLTF
beta TRBV29-1 TRBJ2-7 CDR3: CSVGQGWPYEQYF
B25: 5458 (TCR)
alpha TRAV29/DV5 TRAJ47 CDR3: CAATGGNKLVF
beta TRBV5-5 TRBJ2-7 CDR3: CASSHPLGVSSYEQYF
B26: 763 (TCR)
alpha TRAV19 TRAJ32 CDR3: CALRYGGATNKLIF
beta TRBV7-6 TRBJ1-2 CDR3: CASSLEGVGGYTF
B27: 2058 (TCR)
alpha TRAV39 TRAJ49 CDR3: CAEGNQFYF
beta TRBV7-9 TRBJ2-1 CDR3: CASSLALAGRNYNEQFF
B28: 41 (TCR)
alpha TRAV12-2 TRAJ53 CDR3: CAVGRGGGSNYKLTF
beta TRBV29-1 TRBJ2-7 CDR3: CSAHGGWPYEQYF
B29: 6265 (TCR)
alpha TRAV30 TRAJ49 CDR3: CGTAPLTGNQFYF
beta TRBV18 TRBJ1-1 CDR3: CASSHSGTAYTEAFF
B30: 841.2 (TCR)
alpha TRAV25 TRAJ38 CDR3: CAGPINAGNNRKLIW
beta TRBV6-5 TRBJ2-7 CDR3: CASSLDRVRGNSYEQYF
B31: 7894 (TCR)
alpha TRAV5 TRAJ39 CDR3: CAQNAGNMLTF
beta TRBV27 TRBJ1-1 CDR3: CASSLAPNTEAFF
B32: 684 (TCR)
alpha TRAV38-1 TRAJ31 CDR3: CAFMKLGNNARLMF
beta TRBV10-3 TRBJ1-5 CDR3: CAISGPEINQPQHF
B33: 5170 (TCR)
alpha TRAV12-3 TRAJ33 CDR3: CAMRSNYQLIW
beta TRBV6-1 TRBJ1-5 CDR3: CASSEAQGPQHF
B34: 10832 (TCR)
alpha TRAV12-2 TRAJ53 CDR3: CAVNPRGGGSNYKLTF
beta TRBV29-1 TRBJ2-7 CDR3: CSAQTAWPYEQYF
B35: 7287 (TCR)
alpha TRAV16 TRAJ17 CDR3: CALRSPAAGNKLTF
beta TRBV27 TRBJ2-5 CDR3: CASSFAEGTQYF
B36: 2722 (TCR)
alpha TRAV21 TRAJ45 CDR3: CAVRGADGLTF
beta TRBV6-6 TRBJ2-7 CDR3: CASTNRASDSYEQYF
B37: 5576.2 (TCR)
alpha TRAV12-3 TRAJ49 CDR3: CAMKRDQFYF
beta TRBV6-2 TRBJ2-7 CDR3: CASRTIDLLAGEYEQYF
B38: 225 (TCR)
alpha TRAV12-2 TRAJ41 CDR3: CAVGNSGYALNF
beta TRBV11-2 TRBJ2-1 CDR3: CASLEGPGNEQFF
B39: 509 (TCR)
alpha TRAV12-1 TRAJ36 CDR3: CVVTDLFF
beta TRBV27 TRBJ2-2 CDR3: CASSPRTGVAGELFF
B40: 10813 (TCR)
alpha TRAV3 TRAJ45 CDR3: CAVRDSGGGADGLTF
beta TRBV29-1 TRBJ2-2 CDR3: CSVPGLVFPGELFF
B41: 5251 (TCR)
alpha TRAV12-2 TRAJ53 CDR3: CAVNGGGGSNYKLTF
beta TRBV29-1 TRBJ2-7 CDR3: CSVGTGWPYEQYF
B42: 718 (TCR)
alpha TRAV3 TRAJ45 CDR3: CAVRQTGGGADGLTF
beta TRBV29-1 TRBJ2-2 CDR3: CSVPGLVYPGELFF
B43: 8483 (TCR)
alpha TRAV21 TRAJ20 CDR3: CAVYFRSNDYKLSF
beta TRBV20-1 TRBJ2-7 CDR3: CSATGTVNYEQYF
B44: 6844 (TCR)
alpha TRAV12-3 TRAJ33 CDR3: CAGRSNYQLIW
beta TRBV30 TRBJ2-7 CDR3: CAWSPSGSPLEQYF
B45: 4160 (TCR)
alpha TRAV35 TRAJ21 CDR3: CAGLYNFNKFYF
beta TRBV19 TRBJ1-1 CDR3: CASSTLRGDNRGTEAFF
B46: 201 (TCR)
alpha TRAV19 TRAJ4 CDR3: CALSLSGGYNKLIF
beta TRBV6-6 TRBJ2-7 CDR3: CASSQGVIDEQYF
B47: 1361 (TCR)
alpha TRAV12-1 TRAJ4 CDR3: CVVTGFSGGYNKLIF
beta TRBV14 TRBJ1-4 CDR3: CASSLVRGGFEKLFF
B48: 11949 (TCR)
alpha TRAV35 TRAJ36 CDR3: CAGQLETGANNLFF
beta TRBV10-3 TRBJ2-3 CDR3: CAINPGTSGRWGTDTQYF
B49: 3155 (TCR)
alpha TRAV12-3 TRAJ33 CDR3: CAMRSNYQLIW
beta TRBV6-5 TRBJ2-1 CDR3: CASSYAQGAQFF
B50: 475 (TCR)
alpha TRAV3 TRAJ40 CDR3: CAVSGPTSGTYKYIF
beta TRBV5-5 TRBJ1-5 CDR3: CASSLWDGGNQPQHF
B51: 11751 (TCR)
alpha TRAV21 TRAJ49 CDR3: CAVRPPGNQFYF
beta TRBV6-4 TRBJ2-1 CDR3: CASSPVGTQGYNEQFF
B52: 386 (TCR)
alpha TRAV21 TRAJ52 CDR3: CAVRPGRGTSYGKLTF
beta TRBV19 TRBJ2-3 CDR3: CASSMGAGGAADTQYF
B53: 6254 (TCR)
alpha TRAV21 TRAJ10 CDR3: CAVGGGGGNKLTF
beta TRBV11-2 TRBJ1-2 CDR3: CASSLLWVGDYGYTF
B54: 8395 (TCR)
alpha TRAV21 TRAJ45 CDR3: CAGGGGADGLTF
beta TRBV6-6 TRBJ2-3 CDR3: CASSYPSPDTQYF
B55: 2997 (TCR)
alpha TRAV9-2 TRAJ9 CDR3: CALSALNTGGFKTIF
beta TRBV20-1 TRBJ1-1 CDR3: CSASGLTRDSPLNTEAFF
B56: 7156 (TCR)
alpha TRAV29/DV5 TRAJ49 CDR3: CAASGGNQFYF
beta TRBV5-5 TRBJ2-2 CDR3: CASSAPGGVDTGELFF
B57: 11870 (TCR)
alpha TRAV12-1 TRAJ9 CDR3: CVVNRGTGGFKTIF
beta TRBV27 TRBJ1-6 CDR3: CASMLASYNSPLHF
B58: 4386 (TCR)
alpha TRAV14/DV4 TRAJ10 CDR3: CAKAGGGNKLTF
beta TRBV7-6 TRBJ2-1 CDR3: CASSLTTGQGPHNEQFF
B59: 317 (TCR)
alpha TRAV12-3 TRAJ33 CDR3: CAMRSNYQLIW
beta TRBV6-5 TRBJ2-7 CDR3: CASSYAQGEQYF
B60: 5226 (TCR)
alpha TRAV21 TRAJ49 CDR3: CAVRGNQFYF
beta TRBV6-2 TRBJ2-1 CDR3: CASSYVVVQGVPYNEQFF
B61: 7734 (TCR)
alpha TRAV21 TRAJ29 CDR3: CAVRAGNTPLVF
beta TRBV6-2 TRBJ1-1 CDR3: CASSYTTGTVIPNTEAFF

Biological target: T1, A*01/LTD peptide on A*01/LTD
Experiment: activation reporter or marker
B1: recognises. B2: recognises. B3: recognises. B4: recognises. B5: recognises. B6: recognises. B7: recognises. B8: recognises. B9: no recognition. B10: recognises. B11: recognises. B12: recognises. B13: recognises. B14: recognises. B15: recognises. B16: recognises. B17: no recognition. B18: recognises. B19: recognises. B20: recognises. B21: recognises. B22: recognises. B23: recognises. B24: recognises. B25: recognises. B26: recognises. B27: recognises. B28: recognises. B29: recognises. B30: recognises. B31: recognises. B32: recognises. B33: recognises. B34: recognises. B35: recognises. B36: recognises. B37: recognises. B38: recognises. B39: recognises. B40: recognises. B41: recognises. B42: recognises. B43: recognises. B44: recognises. B45: recognises. B46: recognises. B47: recognises. B48: recognises. B49: recognises. B50: recognises. B51: recognises. B52: recognises. B53: recognises. B54: recognises. B55: recognises. B56: recognises. B57: recognises. B58: recognises. B59: recognises. B60: recognises. B61: recognises.
